B1: Protein PTHB1 (Homo sapiens), Q3SYG4 (parent)
chain: MSLFKARDWWSTILGDKEEFDQGCLCLANVDNSGNGQDKIIVGSFMGYLRIFSPHPAKTGDGAQAEDLLLEVDLRDPVLQVEVGKFVSGTEMLHLAVLHSRKLCVYSVSGTLGNVEHGNQCQMKLMYEHNLQRTACNMTYGSFGGVKGRDLICIQSMDGMLMVFEQESYAFGRFLPGFLLPGPLAYSSRTDSFLTVSSCQQVESYKYQVLAFATDADKRQETEQQKLGSGKRLVVDWTLNIGEQALDICIVSFNQSASSVFVLGERNFFCLKDNGQIRFMKKLDWSPSCFLPYCSVSEGTINTLIGNHNNMLHIYQDVTLKWATQLPHIPVAVRVGCLHDLKGVIVTLSDDGHLQCSYLGTDPSLFQAPNVQSRELNYDELDVEMKELQKIIKDVNKSQGVWPMTEREDDLNVSVVVSPNFDSVSQATDVEVGTDLVPSVTVKVTLQNRVILQKAKLSVYVQPPLELTCDQFTFEFMTPDLTRTVSFSVYLKRSYTPSELEGNAVVSYSRPTDRNPDGIPRVIQCKFRLPLKLICLPGQPSKTASHKITIDTNKSPVSLLSLFPGFASQSDDDQVNVMGFHFLGGARITVLASKTSQRYRIQSEQFEDLWLITNELILRLQEYFEKQGVKDFACSFSGSIPLQEYFELIDHHFELRINGEKLEELLSERAVQFRAIQRRLLARFKDKTPAPLQHLDTLLDGTYKQVIALADAVEENQGNLFQSFTRLKSATHLVILLIALWQKLSADQVAILEAAFLPLQEDTQELGWEETVDAAISHLLKTCLSKSSKEQALNLNSQLNIPKDTSQLKKHITLLCDRLSKGGRLCLSTDAAAPQTMVMPGGCTTIPESDLEERSVEQDSTELFTNHRHLTAETPRPEVSPLQGVSE
partner: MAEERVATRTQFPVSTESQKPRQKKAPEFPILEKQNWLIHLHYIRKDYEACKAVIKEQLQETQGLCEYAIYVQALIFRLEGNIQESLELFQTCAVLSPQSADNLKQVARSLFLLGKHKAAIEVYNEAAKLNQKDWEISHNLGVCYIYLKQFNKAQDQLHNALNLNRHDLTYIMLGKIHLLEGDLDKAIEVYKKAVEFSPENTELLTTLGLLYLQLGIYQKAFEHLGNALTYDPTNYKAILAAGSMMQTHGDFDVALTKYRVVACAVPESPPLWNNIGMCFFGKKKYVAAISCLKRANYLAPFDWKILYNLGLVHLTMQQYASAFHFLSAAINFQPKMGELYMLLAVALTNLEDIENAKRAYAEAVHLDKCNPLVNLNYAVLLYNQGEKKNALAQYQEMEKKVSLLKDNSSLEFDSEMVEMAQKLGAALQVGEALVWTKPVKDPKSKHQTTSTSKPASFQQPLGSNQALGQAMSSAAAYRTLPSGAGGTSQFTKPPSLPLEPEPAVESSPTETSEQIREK

The experiment covers variants of B1. The note with it: with bbs4_human BBS4, Q96RK4.
Turning to L757A, the “effect of a mutation on the interaction” value is given as “with no effect”.
Regarding D435E, the “effect of a mutation on the interaction” value is “with no effect”.
On to F566E, for which the “effect of a mutation on the interaction” value is listed as “with no effect”.
To N800E belongs “with no effect”; to L666K, “with no effect”.
The result for L795K reads “with no effect”; that for V706K, “with no effect”; that for V413E, “with no effect”.
To V413K belongs “with no effect”.
As for E466K, the “effect of a mutation on the interaction” value was “with no effect”.
Turning to Q453A, the “effect of a mutation on the interaction” value was “with no effect”.
To L863K belongs “with no effect”; to P556K, “with no effect”.
To E663K belongs “with no effect”.
On to C469E, for which the “effect of a mutation on the interaction” value is “with no effect”.
The result for V629I reads “disrupting interaction strength”.
For the variant P564E, the “effect of a mutation on the interaction” value is “with no effect”.
On to T782E, for which the “effect of a mutation on the interaction” value is “with no effect”.
As to T782K, the “effect of a mutation on the interaction” value is reported as “with no effect”.
Regarding R510A, the “effect of a mutation on the interaction” value is “with no effect”.
The result for T543A reads “with no effect”; that for N553A, “with no effect”; that for N553K, “with no effect”.
With Y599K, the “effect of a mutation on the interaction” value is reported as “with no effect”.
The result for E878A reads “with no effect”.
L819K: the “effect of a mutation on the interaction” value was “with no effect”.
As to D817K, the “effect of a mutation on the interaction” value was “with no effect”.
On to A833E, for which the “effect of a mutation on the interaction” value is “with no effect”.
With R818A, the “effect of a mutation on the interaction” value is recorded as “with no effect”.
With R818K, the “effect of a mutation on the interaction” value was “with no effect”.
In the case of L827E, the “effect of a mutation on the interaction” value is listed as “with no effect”.
To V734A belongs “with no effect”.
To S486A belongs “with no effect”; to V489E, “with no effect”.
The result for F636E reads “with no effect”; that for F636A, “with no effect”; that for V557E, “with no effect”.
Turning to E852A, the “effect of a mutation on the interaction” value is “with no effect”.
The result for K630E reads “with no effect”.
As to F673K, the “effect of a mutation on the interaction” value is “with no effect”.
Turning to D850K, the “effect of a mutation on the interaction” value is reported as “with no effect”.
With E499K, the “effect of a mutation on the interaction” value is reported as “with no effect”.
To E475K belongs “with no effect”; to E615K, “with no effect”; to L457K, “with no effect”.
The result for S806K reads “with no effect”; that for T405A, “with no effect”.
To T589K belongs “with no effect”; to L591E, “with no effect”; to L737A, “with no effect”.
In the case of D859E, the “effect of a mutation on the interaction” value is “with no effect”.
The result for Q574K reads “with no effect”; that for Q574R, “disrupting interaction strength”.
For the variant T473E, the “effect of a mutation on the interaction” value is “with no effect”.
Regarding T473K, the “effect of a mutation on the interaction” value is “with no effect”.
To E765K belongs “with no effect”.
In the case of L736K, the “effect of a mutation on the interaction” value was “with no effect”.
To G538A belongs “with no effect”; to M578E, “with no effect”.
As to H546E, the “effect of a mutation on the interaction” value is recorded as “with no effect”.
To P691A belongs “with no effect”; to P691E, “with no effect”.
Turning to T861A, the “effect of a mutation on the interaction” value is reported as “with no effect”.
The result for F724A reads “with no effect”.
To F606K belongs “with no effect”; to L720A, “with no effect”; to Q798A, “with no effect”.
Turning to D650A, the “effect of a mutation on the interaction” value is reported as “with no effect”.
To G884A belongs “with no effect”.
As to C535K, the “effect of a mutation on the interaction” value is on record as “with no effect”.
Take V450K: the “effect of a mutation on the interaction” value is “with no effect”.
The result for L648A reads “with no effect”; that for T441E, “with no effect”.
For the variant V416A, the “effect of a mutation on the interaction” value is given as “with no effect”.
For the variant Q764K, the “effect of a mutation on the interaction” value is reported as “with no effect”.
Q764A: the “effect of a mutation on the interaction” value is on record as “with no effect”.
To P689K belongs “with no effect”; to Q693E, “with no effect”; to C634E, “with no effect”.
To S788K belongs “with no effect”; to G718A, “with no effect”.
As for G718D, the “effect of a mutation on the interaction” value was “disrupting interaction strength”.
The result for G718T reads “disrupting interaction strength”.
For N719E, the “effect of a mutation on the interaction” value is listed as “with no effect”.
To L611E belongs “with no effect”.
In the case of S860E, the “effect of a mutation on the interaction” value is given as “with no effect”.
For P464A, the “effect of a mutation on the interaction” value is reported as “with no effect”.
To G638A belongs “with no effect”.
To G638K belongs “with no effect”; to F563S, “disrupting interaction strength”.
